These results are taken from article PMC4471680.

The target of the assay is myeloperoxidase (human (endogenous in neutrophils)). As to the kind of experiment: SEC; unactivated azurophilic granules permeabilized with 0.1% NP-40, Superdex 200 GL, 20 mM HEPES pH 7.4, 100 mM NaCl, 0.5 U/ml heparin; fractions probed for NE and MPO; proteins of the complex detected by mass spectrometry. A general note: Size exclusion chromatography separates by hydrodynamic size, large species first.
Sequence of myeloperoxidase (human (endogenous in neutrophils)) (P05164 165-745): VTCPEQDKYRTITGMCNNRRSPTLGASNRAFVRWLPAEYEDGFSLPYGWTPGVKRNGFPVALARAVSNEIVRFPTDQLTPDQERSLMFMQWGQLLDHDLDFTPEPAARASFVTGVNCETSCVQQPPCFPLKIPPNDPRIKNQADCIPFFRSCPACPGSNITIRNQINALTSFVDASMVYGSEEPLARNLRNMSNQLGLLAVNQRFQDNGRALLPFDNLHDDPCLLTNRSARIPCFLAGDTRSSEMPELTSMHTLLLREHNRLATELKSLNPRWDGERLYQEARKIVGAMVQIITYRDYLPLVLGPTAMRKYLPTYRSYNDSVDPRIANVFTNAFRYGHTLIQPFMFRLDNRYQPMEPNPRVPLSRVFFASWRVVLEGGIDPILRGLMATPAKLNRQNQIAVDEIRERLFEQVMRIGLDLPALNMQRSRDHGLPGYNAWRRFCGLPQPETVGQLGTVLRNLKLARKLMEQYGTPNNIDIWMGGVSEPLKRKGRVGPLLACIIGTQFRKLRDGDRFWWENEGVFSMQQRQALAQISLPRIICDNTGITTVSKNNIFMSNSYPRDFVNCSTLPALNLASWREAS

Regarding “neutrophil elastase (from UniProt P08246 30-267) (enzyme)”, the stoichiometry N turned out to be 2 NE per MPO.

As a reminder, the stoichiometry N is the number of molecules, sites or subunits per partner or assembly.
